# Measurements: PMC11931667, “A new view of missense mutations in α‐mannosidosis using molecular dynamics conformational ensembles” (Protein Science : A Publication of the Protein Society, 2025)
# Target: the molecule itself
# Assay: native gel or EMSA; PAGE run under native conditions and Western blot with anti-His IgG of hLAMAN expressed in K. phaffii for the indicated time periods; single band at approx. 230 kDa
protein,measurement,value
"Human lysosomal α‐mannosidase (enzyme, UniProt O00754 50-1011, looked up, human lysosomal alpha-mannosidase (hLAMAN, EC 3.2.1.24), gene MAN2B1; That vector probably adds the alpha-factor secretion signal; it speaks of a homodimer of the polypeptides A-E, (A-E)2; also called hLAMAN; MAN2B1; source: K. phaffii X33 (pPICZalpha), methanol-induced; aliquots of pellet and supernatant analysed, not purified) GGYETCPTVQPNMLNVHLLPHTHDDVGWLKTVDQYFYGIKNDIQHAGVQYILDSVISALLADPTRRFIYVEIAFFSRWWHQQTNATQEVVRDLVRQGRLEFANGGWVMNDEAATHYGAIVDQMTLGLRFLEDTFGNDGRPRVAWHIDPFGHSREQASLFAQMGFDGFFFGRLDYQDKWVRMQKLEMEQVWRASTSLKPPTADLFTGVLPNGYNPPRNLCWDVLCVDQPLVEDPRSPEYNAKELVDYFLNVATAQGRYYRTNHTVMTMGSDFQYENANMWFKNLDKLIRLVNAQQAKGSSVHVLYSTPACYLWELNKANLTWSVKHDDFFPYADGPHQFWTGYFSSRPALKRYERLSYNFLQVCNQLEALVGLAANVGPYGSGDSAPLNEAMAVLQHHDAVSGTSRQHVANDYARQLAAGWGPCEVLLSNALARLRGFKDHFTFCQQLNISICPLSQTAARFQVIVYNPLGRKVNWMVRLPVSEGVFVVKDPNGRTVPSDVVIFPSSDSQAHPPELLFSASLPALGFSTYSVAQVPRWKPQARAPQPIPRRSWSPALTIENEHIRATFDPDTGLLMEIMNMNQQLLLPVRQTFFWYNASIGDNESDQASGAYIFRPNQQKPLPVSRWAQIHLVKTPLVQEVHQNFSAWCSQVVRLYPGQRHLELEWSVGPIPVGDTWGKEVISRFDTPLETKGRFYTDSNGREILERRRDYRPTWKLNQTEPVAGNYYPVNTRIYITDGNMQLTVLTDRSQGGSSLRDGSLELMVHRRLLKDDGRGVSEPLMENGSGAWVRGRHLVLLDTAQAAAAGHRLLAEQEVLAPQVVLAPGGGAAYNLGAPPRTQFSGLRRDLPPSVHLLTLASWGPEMVLLRLEHQFAVGEDSGRNLSAPVTLNLRDLFSTFTITRLQETTLVANQLREAASRLKWTTNTGPTPHQTPYQLDPANITLEPMEIRTFLASVQWKEVDG",stoichiometry N,2
